The data set in a line: yeast display, Sf9 membrane polyspecificity reagent, FACS + sequencing; frameworks hold sequencing errors. Summed up: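 Nanobodies from a synthetic yeast display library (Saccharomyces cerevisiae BJ5465), induced 36–48 hours with galactose, were stained 1 hour at 4 °C with 10% biotinylated, detergent-solubilized Sf9 membrane reagent, enriched on streptavidin microbeads, then FACS-sorted. Anti-HA (expression) and streptavidin (reagent binding) fluorescence set low and high (top ~1%) gates. Polyreactivity labels come from the gate of origin. Genes were colony-PCR amplified, MiSeq 2 × 250 sequenced and filtered by CDR length.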
Take “QVQLVESGGGLVQAGGSLRLSCAASGSTFKRYAMGWYRQAPGKERELVASISQRGGTTYYADSVKGRFTISRDNAKNTVDLQMNSLKPEDTAVYYCAKGFGWTRTIYDYWGQGTQVTVSS”: the “polyreactivity (PSR sort gate)” value is recorded as “high polyreactivity”.

On to “QVQLVESGGGLVQAGGSLRLSCAASGSTFKRYARGWYRQAPGKEREFVAGISSRGSRTYYADSVKGRFTISRDNAKNTVYLQMNSLKPEDTAVYYCAVSGNHVSPPYGYWGQGTQVTVSS”, for which the “polyreactivity (PSR sort gate)” value is reported as “high polyreactivity”. Take “QVQLVESGGGLVQAGGSLRLSCAASGSTFKRYSMGWYRQAPGKERELVASISGRGGGTYYADSVKGRFTISRDNEKNTVYLQMNSLIPEDTAVYYCAAYGRYYGFDYWGLGTQVTVSS”: the “polyreactivity (PSR sort gate)” value is “high polyreactivity”. Next, “QVQLVESGGGLVQAGGSLRLSCAASGSTFKWYAMGWYRQAPGKERELVAAISSRGGSTYYADSVKGRFTISRDNAKNTVYLQMNSLKPEDTAVYYCNALVRPQWSYNDFDYWGQGTQVTVSS”: “high polyreactivity”; “QVQLVESGGGLVQAGGSLRLSCAASGSTFKWYAMGWYRQAPGKERELVAGISWTGASTYYADSVKGRFTISRDNAKNTVYLQMNSLKPDDTAVYYCAADRTYFALLWTGRARYDYWGQGTQVTVSS”: “high polyreactivity”. The result for “QVQLVESGGGLVQAGGSLRLSCAASGSTFKWYGMGWYRQAPGKERELVATINYSSSTTYYADSVKGRFTISRDNAKNTVYLQMNSLKPEDTAVYYCAKGVYWGTKSTYDYWGQGTQVTVSS” reads “high polyreactivity”. Consider “QVQLVESGGGLVQAGGSLRLSCAASGSTFKYNTMGWYRQAPGKERELVATISTGGSTYYADSVKGRFTISRDNAKNTVYLQMNSLKPEDTAVYYCAADGARRNTYRYDYWGQGTQVTVSS”, for which the “polyreactivity (PSR sort gate)” value is “low polyreactivity”. Next, “QVQLVESGGGLVQAGGSLRLSCAASGSTFKYYAMGWYRQAPGKERELVARISSGGNTKYADSVKGRFTISRDNAMNTVYLQMNSLKPEDTAVYYCAAGYPGVGYAYDYWGQGTQVTVSS”: “high polyreactivity”.

“QVQLVESGGGLVQAGGSLRLSCAASGSTFKYYPMGWYRQAPGKERELVAAITSTGSTNYADSVKGRFTISRDNAKNTVYLQMNSRKPEDTAVYYCAKKYFYSTYYSWGHGTQVTVSS”: the “polyreactivity (PSR sort gate)” value is “low polyreactivity”. On to “QVQLVESGGGLVQAGGSLRLSCAASGSTFLDYAMGWYRQAPGKDRELVAAISTDDSSTYYADSVKGRFTISRDNAKNTVYLQMNSLKPEDTAVYYCAADDRDWVNFDYWGQGTQVTVSS”, for which the “polyreactivity (PSR sort gate)” value was “low polyreactivity”.

For the sequence “QVQLVESGGGLVQAGGSLRLSCAASGSTFLEYARGWSRQAPGKERELVATITGGGGTNYADSVKGRFTISRDNAKNTVYLQMNSLKPEETAVYYCAADYGGAYEYGYWGQGTQVTVSS”, the “polyreactivity (PSR sort gate)” value is listed as “low polyreactivity”. “QVQLVESGGGLVQAGGSLRLSCAASGSTFLFYAMGWYRQAPGKERELVAAISSSGTSTYYADSVKGRFTISRDNAKNTVYLQMNSLKPEDTAVYYCAAVDPYERYVYWGQGTQVTVSS”: the “polyreactivity (PSR sort gate)” value is on record as “low polyreactivity”.

Regarding “QVQLVESGGGLVQAGGSLRLSCAASGSTFLFYDMGWYRHAAGKERELVAAIRWSGGSTYADSVKGRFTISRDNAKNTVYLQMNSLKPVDTAVYYCATTYRPTFRRHYNYWGQGTQVTVSS”, the “polyreactivity (PSR sort gate)” value is listed as “low polyreactivity”.

“QVQLVESGGGLVQAGGSLRLSCAASGSTFLGYTMGWSRQAPGKERELVATITRRGGRTSYADSVKGRFTISRDNAKNTVYLQMNSLKPEDTAVYYCATDSKRSSVPWNTYDYWGQGTQVTVSS”: the “polyreactivity (PSR sort gate)” value was “high polyreactivity”. Next, “QVQLVESGGGLVQAGGSLRLSCAASGSTFLLNAMGWSRQAPGKDRELVAAITWTGGSTYYADSVKGRFTISRDNAKNTVYLQMNILKPEDTAVYYCAAETYVTSYDYWGQGTQVTVSS”: “low polyreactivity”; “QVQLVESGGGLVQAGGSLRLSCAASGSTFLLNAMGWYRQAPGKERELVAAITSSGGTNYADSVKGRFTISRDNAKNTVYLQMISLKPEDTAVYYCNTRYSPGYQGTEVDYWGQGTQVTVSS”: “low polyreactivity”; “QVQLVESGGGLVQAGGSLRLSCAASGSTFLLNAMGWYRQAPGTERELVAAITSSGGTNYADSVKGRFTISRDNAKNTVYLQMNSLKPEDTAVYYCAKDQERVTKGRFYLLEYYWGQGTQVTVSS”: “low polyreactivity”. On to “QVQLVESGGGLVQAGGSLRLSCAASGSTFLLYAMGWSRQAPGKERELVASISGDGSTNYADSVKGRFTISRDNAKNTVYLQMNSLKPEDTAVYYCARDTVHRLRISSVISNYWGQGTQVTVSS”, for which the “polyreactivity (PSR sort gate)” value is “low polyreactivity”. The result for “QVQLVESGGGLVQAGGSLRLSCAASGSTFLPYAMGWYRQAPGKERELVAAIRWSVGSTYYADSVKGRFTISRDNAKNTVYLQMNSLIPEVTAGYYCYAVVYVVGDFDYWGQGSQVTVSS” reads “high polyreactivity”; that for “QVQLVESGGGLVQAGGSLRLSCAASGSTFLQYAMGWYRQPPGKERELVAAIRFSTGTTYYADSVKGRFTISRDNAKNTVYLQMNSLKPEDTAVYYCNAVGTYRPWFHTYGYWGQGTQVTVSS”, “high polyreactivity”; that for “QVQLVESGGGLVQAGGSLRLSCAASGSTFLRNAMGWYRQAPGKERELVATITNGGSTYYADSVKGRFTISRDNAKNTVYLQMNSLKPEDTAVYYCATRSSYWSWLRYGYGYWGQGTQVTVSS”, “low polyreactivity”. Turning to “QVQLVESGGGLVQAGGSLRLSCAASGSTFLRNAMRWYRQAPGKERELVAAISRSGGSTYYADSVKGRFTSSRDNAKNTVYLQMNSLKPEDTAVYYCAAVVKYRYSAYGGDYCGQGTQVTVSS”, the “polyreactivity (PSR sort gate)” value is listed as “high polyreactivity”. For “QVQLVESGGGLVQAGGSLRLSCAASGSTFLRNDMGWYRQAPGKERELVAAITSGGITNYADSVKGRFTISRDNAKNTVSLQMNSLKPEDTAVYYCNKDSDLHHYHTEFDYWGQGTQVTVSS”, the “polyreactivity (PSR sort gate)” value is on record as “low polyreactivity”. For the sequence “QVQLVESGGGLVQAGGSLRLSCAASGSTFLRNVMGWYRQAPGKERELVAAISSRGGSTHYADSVKGRFTISRDNAKNTDYLQMNSLKPEDTAVYYCNAERTAAQYVRAAYDYWGQGTQVTVSS”, the “polyreactivity (PSR sort gate)” value is “low polyreactivity”. On to “QVQLVESGGGLVQAGGSLRLSCAASGSTFLSYAMGWYRQAPGKERELVAAITGSGGSTYYADSVKGRFTISRDNAKNTVYLQMNSLKPEDTAVYYCATDLWRWYGWFDYWGQGTQVTVSS”, for which the “polyreactivity (PSR sort gate)” value is listed as “low polyreactivity”. Next, “QVQLVESGGGLVQAGGSLRLSCAASGSTFLTNTMGWYRQAPGKERELVAIISRSSGTTYYSDSVKGRFTISRDNAKNTVYLQMNSLKPEDTAVYYCAKRYRRAYPYSKNDYWGQGTQVTVSS”: “high polyreactivity”; “QVQLVESGGGLVQAGGSLRLSCAASGSTFLVYAMGWYRQAPGKERELVAAIRGGGSTNYADSVKGRFTISRDNAKNTVYLQMNSLKPEDTAVYYCNADIVLSWFGSGFDYWGQGTQVTVSS”: “low polyreactivity”. Next, “QVQLVESGGGLVQAGGSLRLSCAASGSTFLYNALGWYRPAPGKEREFVAAISGSGGTTYYADSVKGRFTISRDNAKNTVYLQMNSLKPEDTAVYYCAVSQSWYWYYASDYWGQGTQVTVSS”: “low polyreactivity”; “QVQLVESGGGLVQAGGSLRLSCAASGSTFLYNTMGWYRQAPGKERELVATITSRGDRTYYADSVKGRFTISRDIPKNNVYLQMNSLKPEDTAVYYCNAYGGNYPQSYRYYYWGQGTQVTVSS”: “low polyreactivity”. Next, “QVQLVESGGGLVQAGGSLRLSCAASGSTFLYYAMGCYRQAPGKDRELVARITTRVGRTYYADSVKGRFTISRDNAKNTVYLQMNSLKPEDTAVYYCNAPYLKSRFRAYYHWGQGTQVTVAS”: “high polyreactivity”; “QVQLVESGGGLVQAGGSLRLSCAASGSTFLYYAMGWYRPAPGKEREFVASISGSGGSTNYADSVKGRFTISRDNAKTTVYLQLNSLKPEDTAVYYCAAGYGGWAWNHVSYGGDYWGQGTQVTVSS”: “low polyreactivity”; “QVQLVESGGGLVQAGGSLRLSCAASGSTFLYYAMGWYRPAPGKERELVAAISSGDSTYADSVKGRFTISRDNAKNTVYLQMNSLKPEDTAVYYCNTVLYPYWQWDYEFDYWGQGTQVTVSS”: “low polyreactivity”. Regarding “QVQLVESGGGLVQAGGSLRLSCAASGSTFLYYAMGWYRQAPGKERELVAAITSSGGRTYYADSVKGRFTISRDNAKNTVYLQMNSLKPEDTAVYYCARGWPRREQSEYDYWGQGTQVTVSS”, the “polyreactivity (PSR sort gate)” value was “high polyreactivity”. For the sequence “QVQLVESGGGLVQAGGSLRLSCAASGSTFLYYAMGWYRQAPGKERELVARITTRVGRTYYADSVKGRFTISRDNAKNTVYFQMNSLKPEDTAVYYCAAYPDYSYYYWGQGTQVTVSS”, the “polyreactivity (PSR sort gate)” value was “high polyreactivity”.

On to “QVQLVESGGGLVQAGGSLRLSCAASGSTFLYYAMGWYRQAPGKERELVASITRRGGRTYYADSVKGRFTISRDNAKNTVYLQMNSLKPVDTAVYYCNAVYGRQYRGYNYKFFYWGQGTQVTVSS”, for which the “polyreactivity (PSR sort gate)” value is “high polyreactivity”. As to “QVQLVESGGGLVQAGGSLRLSCAASGSTFLYYEMGWYRQAPGKDRELVAAISASGGSTYYADSVKGRFTISRDNAKSTVYLQMNSLKPEDTAVYYCAAVYHWVRPILYYWGQGTQVTVSS”, the “polyreactivity (PSR sort gate)” value is recorded as “high polyreactivity”. Next, “QVQLVESGGGLVQAGGSLRLSCAASGSTFNANAMGWYRQAPGKERELVAGISSGGSTYADSVKGRFTISRDNAKNTVYLQMNSLKPEDSAVYYCNADYYSWYPTFYWYDYWGQGSQVTVSS”: “high polyreactivity”. On to “QVQLVESGGGLVQAGGSLRLSCAASGSTFNAYAMGWYRQAPGKERELVAAISYTGGSTYYADSVKGRFTISRDNAKNTVYLQMNSLKPEDTAVYYCARRQARKFYYWGQGTQVTVSS”, for which the “polyreactivity (PSR sort gate)” value is given as “high polyreactivity”. The result for “QVQLVESGGGLVQAGGSLRLSCAASGSTFNDYAMGWYRQAPGKERELVAGITWRGTSTYYADSVKGRFTISRDNAKNTVYLQRNSLKPEDTAVYYCAADVYYLLWLWMDYWGQGTQVTVSS” reads “low polyreactivity”; that for “QVQLVESGGGLVQAGGSLRLSCAASGSTFNFNAMGWYRQAPGKERELVAAISSSGGSTYYADSVKGRFTISRDNAKNTVYLQMNSLKPEDTAVYYCATVLRKSPLYYYWGQGTQVTVSS”, “high polyreactivity”. Next, “QVQLVESGGGLVQAGGSLRLSCAASGSTFNGYAMGWYRQAPGKERELVAAISKRGGSTYYADSVKGRFTISRDNAKNTVYLQMNSLKPEETAVYYCAARVGRTYTVVWWSHYNYWGQGTQVTVSS”: “high polyreactivity”.

These data come from the nanobody polyreactivity screen of Harvey et al. (2022).
